Source: PMC1810434, “Breakage-Reunion Domain of Streptococcus pneumoniae Topoisomerase IV: Crystal Structure of a Gram-Positive Quinolone Target” (PLoS ONE, 2007)
Residue numbers refer to the chain shown, from its start. Names and notes keep the numbering of the source.

B1: ParC55, 55.5 kDa N-terminal breakage-reunion domain of Streptococcus pneumoniae topoisomerase IV subunit A (ParC) (domain or fragment)
chain: MSNIQNMSLEDIMGERFGRYSKYIIQDRALPDIRDGLKPVQRRILYSMNKDSNTFDKSYRKSAKSVGNIMGNFHPHGDSSIYDAMVRMSQNWKNREILVEMHGNNGSMDGDPPAAMRYTEARLSEIAGYLLQDIEKKTVPFAWNFDDTEKEPTVLPAAFPNLLVNGSTGISAGYATDIPPHNLAEVIDAAVYMIDHPTAKIDKLMEFLPGPDFPTGAIIQGRDEIKKAYETGKGRVVVRSKTEIEKLKGGKEQIVIIEIPYEINKANLVKKIDDVRVNNKVAGIAEVRDESDRDGLRIAIELKKDANTELVLNYLFKYTDLQINYNFNMVAIDNFTPRQVGIVPILSSYIAHRREVILARSRFDKEKAEKRLHIVEGLIRVISILDEVIALIRASENKADAKENLKVSYDFTEEQAEAIVTLQLYRLTNTDVVVLQEEEAELREKIAMLAAIIGDERTMYNLMKKELREVKKKFATPRLSSLEDTAKALE
notes: ParC (topoisomerase IV subunit A), S. pneumoniae strain 7785, residues 1-490, with the substitution I489L needed for plasmid construction; also called wild-type ParC55; N-terminal ParC domain; source: E. coli, pET29a expression plasmid, purified by Ni2+-NTA chromatography; not shown: His6, C-terminal, kept
B2: ParC55 Cys426 (ParC55 with Arg426 changed to Cys) (domain or fragment)
chain: B1 chain with R426C
notes: PDB 2NOV holds the parent (wild-type ParC55); No entry of its own is named for the Cys426 data set; also called ParC Cys426; Cys426 mutant; source: E. coli, purified by Ni2+-NTA chromatography as for wild-type ParC55

Biological target: the molecule itself
Assay: crystal structure; hanging drop vapor diffusion at ambient temperature; space group I222; solved by molecular replacement; asymmetric unit of two biological dimers; wild-type data to 2.7 Å, Cys426 data to 3.25 Å

Protein	binding result
B1	binds
B2	binds
